The values that follow are results of earlier work, collected in article PMC3086721.

For the data set, the target named is ubiquitin (Homo sapiens) (UniProt P0CG47).

E2-25K UBA, sequence (P61086 157-200): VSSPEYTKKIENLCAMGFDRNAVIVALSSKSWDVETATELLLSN

E2-25K UBA (from UniProt P61086): the Kd is 400 µM.

Broadly, the Kd is the equilibrium constant for the complex coming apart.
